From US6288042, “Anti-viral guanosine-rich tetrad forming oligonucleotides” (Aronex Pharmaceuticals, Inc.)

Legend:
[1] = target: T1, HIV-1 integrase wild-type (IN1-288) (Human immunodeficiency virus 1, UniProt P04585 P04585:1148-1435); assay: inhibition; 3'-processing column as printed; strand transfer column 0.090; conditions: G4
[2] = target: T1, HIV-1 integrase wild-type (IN1-288); assay: inhibition; 3'-processing column as printed; strand transfer column 0.485; conditions: G4
HIV-1 gp120 = HIV-1 gp120 (Human immunodeficiency virus 1, UniProt P04578 P04578:33-511); assay: competition; PT oligonucleotide inhibits V3 loop Mab binding to immobilized gp120; conditions: tags: immobilized
[3] = target: T1, HIV-1 integrase wild-type (IN1-288); assay: inhibition; 3'-processing column as printed; strand transfer column 0.110; conditions: G4
SIV integrase = target: T2, SIV integrase (Simian immunodeficiency virus, UniProt P05896 P05896:1156-1448); assay: inhibition; 3'-processing; conditions: G4
T2 sequence: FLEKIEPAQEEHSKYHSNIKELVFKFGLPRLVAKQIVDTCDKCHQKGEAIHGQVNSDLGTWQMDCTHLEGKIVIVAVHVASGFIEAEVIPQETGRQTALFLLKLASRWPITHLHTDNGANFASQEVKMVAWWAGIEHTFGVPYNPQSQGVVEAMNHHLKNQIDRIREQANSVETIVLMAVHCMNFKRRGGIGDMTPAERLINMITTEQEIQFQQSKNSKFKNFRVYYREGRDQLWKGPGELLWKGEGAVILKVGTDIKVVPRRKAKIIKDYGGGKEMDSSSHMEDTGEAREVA

FIV integrase = FIV integrase (Feline immunodeficiency virus, UniProt P16088 P16088:844-1124); assay: inhibition; 3'-processing; conditions: G4
[4] = target: HIV-1 nucleocapsid protein (Human immunodeficiency virus 1, UniProt P04591 P04591:378-432); assay: binds efficiently, data not shown; conditions: G4
[5] = target: T1, HIV-1 integrase wild-type (IN1-288); assay: inhibition; 3'-processing column as printed; strand transfer column 0.159; conditions: G4
[6] = target: T1, HIV-1 integrase wild-type (IN1-288); assay: inhibition; 3'-processing; other column (strand transfer) 0.870; Table B-7 gives >0.50; only modest inhibition of U5 DNA binding at 500 nM (FIG. 25); conditions: G4
[7] = target: T1, HIV-1 integrase wild-type (IN1-288); assay: inhibition; 3'-processing column as printed; strand transfer column 0.129; conditions: G4
[8] = target: T1, HIV-1 integrase wild-type (IN1-288); assay: inhibition; 3'-processing column as printed; strand transfer column 0.059; conditions: G4
[9] = target: FMLV reverse transcriptase (Friend murine leukemia virus, UniProt P26810 P26810:661-1331); assay: inhibition; reverse transcriptase activity in culture medium; conditions: protein: virion; tags: culture medium of chronically infected NIH3T3 cells

B1: T30570 (structured_DNA)
DNA: GTGGTGGGTGGGTGGGT
modifications: 5-bromo dU at 13; PS at first and last linkage [n positions 13 = modified dU]
- IC50 [1]: 70 nM

B2: T30675 (structured_DNA)
DNA: GTGGTGGGTGTGGTTGGT
modifications: PS at first and last linkage
- IC50 [2]: 500 nM

B3: I100-21 (ssDNA)
DNA: GTGGTGGGTGGGTGGGTGGTGGGTGGTGGTTGTGGGTGGGTGGTG
modifications: PS all linkages
- binding result (HIV-1 gp120): binds

B4: T30075 (structured_DNA)
DNA: GTGGTGGGTGGGTGGGT
modifications: 3'-cholesterol via triglycyl linker
- IC50 [3]: 95 nM

B5: T30177 (AR177) (structured_DNA)
DNA: GTGGTGGGTGGGTGGGT
modifications: PS at first and last linkage (pPT)
- IC50 (SIV integrase): 420 nM
- IC50 (FIV integrase): 175 nM
- binding result [4]: binds

B6: T30679 (structured_DNA)
DNA: GTGGTTGGTGGGTGGGT
modifications: PS at first and last linkage
- IC50 [5]: 156 nM

B7: T30659 thrombin binding aptamer pPT (structured_DNA)
DNA: GGTTGGTGTGGTTGG
modifications: PS at first and last linkage (Table B-7; Table C-1 says PT)
- IC50 [6]: 750 nM

B8: T30722 (structured_DNA)
DNA: GTGGGTGGTGGGTGGGT
modifications: C-5 propynyl dU at capital T; PS at first and last linkage
- IC50 [7]: 134 nM

B9: 1174 (ssDNA)
DNA: GGGTGGGTGGGTGGGTGG
modifications: PS all linkages
- binding result (HIV-1 gp120): binds

B10: T30720 (structured_DNA)
DNA: GGGGTGGTGGGTGGGT
modifications: C-5 propynyl dU at capital T; PS at first and last linkage
- IC50 [8]: 62 nM

B11: I100-12 (ssDNA)
DNA: GTTGGGGGTTGTTGGTGGGGTGGTGG
modifications: PS all linkages
- IC50 [9]: < 500 nM
